# Measured values taken from publication PMC10760953, “Somatic estrogen receptor α mutations that induce dimerization promote receptor activity and breast cancer proliferation” (The Journal of Clinical Investigation, 2024).
# T1: S463P ERα ligand-binding domain (LBD)
# T1 chain: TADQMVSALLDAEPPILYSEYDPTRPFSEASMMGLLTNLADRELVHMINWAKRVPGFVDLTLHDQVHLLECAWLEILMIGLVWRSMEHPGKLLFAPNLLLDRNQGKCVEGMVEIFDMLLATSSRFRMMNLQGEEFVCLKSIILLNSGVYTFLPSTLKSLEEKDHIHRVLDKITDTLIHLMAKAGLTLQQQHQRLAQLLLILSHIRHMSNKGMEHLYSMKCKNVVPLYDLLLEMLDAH
# Key:
# [1] = target: S463P ERα ligand-binding domain (LBD); test: FRET or BRET; time-resolved FRET of dimer exchange: 2 nM ER-LBD labelled at C417 (biotin, streptavidin-terbium) mixed with 10 nM ER-LBD labelled at C530 (fluorescein); apo or exposed to 1 μM E2 for 30 minutes before mixing; signal followed with time
# [2] = target: T1, S463P ERα ligand-binding domain (LBD); test: tr-FRET dimer exchange; details: chain shown with the change
# [3] = target: the molecule itself; test: cell-based or functional assay
Molecule,"fold slower dissociation of dimers into monomers against WT ER, absence of E2 [1] [times]","other: t1/2 of dimer exchange ([2]; apo (no E2), parent: 7) [h]","other: t1/2 of dimer exchange ([2]; protein exposed to 1 μM E2 for 30 minutes before dimer exchange, parent: 101) [h]","estrogen-independent expression of GREB1 (RT-qPCR, fold change relative to WT), SKBR3 cells [3] [fold]","estrogen-independent expression of PGR (RT-qPCR, fold change relative to WT), SKBR3 cells [3] [fold]"
S463P ERα ligand-binding domain (LBD) (domain or fragment),7.6,–,–,–,–
WT ERα ligand-binding domain (LBD) S463P (protein) TADQMVSALLDAEPPILYSEYDPTRPFSEASMMGLLTNLADRELVHMINWAKRVPGFVDLTLHDQVHLLECAWLEILMIGLVWRSMEHPGKLLFAPNLLLDRNQGKCVEGMVEIFDMLLATSSRFRMMNLQGEEFVCLKSIILLNSGVYTFLPSTLKSLEEKDHIHRVLDKITDTLIHLMAKAGLTLQQQHQRLAQLLLILSHIRHMSNKGMEHLYSMKCKNVVPLYDLLLEMLDAH,–,0.883,3.17,–,–
"HA-tagged ERα S463P (receptor, UniProt P03372 1-595, looked up) MTMTLHTKASGMALLHQIQGNELEPLNRPQLKIPLERPLGEVYLDSSKPAVYNYPEGAAYEFNAAAAANAQVYGQTGLPYGPGSEAAAFGSNGLGGFPPLNSVSPSPLMLLHPPPQLSPFLQPHGQQVPYYLENEPSGYTVREAGPPAFYRPNSDNRRQGGRERLASTNDKGSMAMESAKETRYCAVCNDYASGYHYGVWSCEGCKAFFKRSIQGHNDYMCPATNQCTIDKNRRKSCQACRLRKCYEVGMMKGGIRKDRRGGRMLKHKRQRDDGEGRGEVGSAGDMRAANLWPSPLMIKRSKKNSLALSLTADQMVSALLDAEPPILYSEYDPTRPFSEASMMGLLTNLADRELVHMINWAKRVPGFVDLTLHDQVHLLECAWLEILMIGLVWRSMEHPGKLLFAPNLLLDRNQGKCVEGMVEIFDMLLATSSRFRMMNLQGEEFVCLKSIILLNSGVYTFLPSTLKSLEEKDHIHRVLDKITDTLIHLMAKAGLTLQQQHQRLAQLLLILSHIRHMSNKGMEHLYSMKCKNVVPLYDLLLEMLDAHRLHAPTSRGGASVEETDQSHLATAGSTSSHSLQKYYITGEAEGFPATV",–,–,–,2.9,7.1
"HA-ERα A430K/S463P double mutant (receptor, UniProt P03372 1-595, looked up) MTMTLHTKASGMALLHQIQGNELEPLNRPQLKIPLERPLGEVYLDSSKPAVYNYPEGAAYEFNAAAAANAQVYGQTGLPYGPGSEAAAFGSNGLGGFPPLNSVSPSPLMLLHPPPQLSPFLQPHGQQVPYYLENEPSGYTVREAGPPAFYRPNSDNRRQGGRERLASTNDKGSMAMESAKETRYCAVCNDYASGYHYGVWSCEGCKAFFKRSIQGHNDYMCPATNQCTIDKNRRKSCQACRLRKCYEVGMMKGGIRKDRRGGRMLKHKRQRDDGEGRGEVGSAGDMRAANLWPSPLMIKRSKKNSLALSLTADQMVSALLDAEPPILYSEYDPTRPFSEASMMGLLTNLADRELVHMINWAKRVPGFVDLTLHDQVHLLECAWLEILMIGLVWRSMEHPGKLLFAPNLLLDRNQGKCVEGMVEIFDMLLKTSSRFRMMNLQGEEFVCLKSIILLNSGVYTFLPSTLKSLEEKDHIHRVLDKITDTLIHLMAKAGLTLQQQHQRLAQLLLILSHIRHMSNKGMEHLYSMKCKNVVPLYDLLLEMLDAHRLHAPTSRGGASVEETDQSHLATAGSTSSHSLQKYYITGEAEGFPATV",–,–,–,0.4,0.2
